Experimental data from patent publication US11078465B2, “Alcohol dehydrogenase mutant and application thereof in synthesis of diaryl chiral alcohols” (Jiangnan University, priority 2018, dated 2021).
Where a chain is given by its changes, count along the chain named. Names may count otherwise. “And” between values parts separate entries of the source, which are not always exact repeats. Identical values can stand only once. “Also recorded” adds a separate entry of the source.

How the values were obtained:
Type in all cases: biochemical
[1] = Kinetic analysis of alcohol dehydrogenase and mutants (NADPH oxidation, 340 nm, double reciprocal curve); conditions: substrate CPMK
Description: (§1) Adopting a total reaction system of 200 μL, including: 1.0 mM NADPH, 1.0 mM substrate CPMK and sodium phosphate buffer (PBS, 100 mM, pH 7.0), fully and evenly mixing, maintaining at 30° C. for 2 min, adding an appropriate amount of enzyme solution, and detecting the change in light absorption at 340 nm.
(§2) The enzyme activity was calculated by the following formula: Enzyme activity (U)=EW×V×10^3/(6220×I);
(§3) in the formula, EW is the change in absorbance at 340 nm in 1 min; V is the volume of a reaction solution in mL; 6220 is the molar extinction coefficient of NADPH in L/mol·cm); and 1 is the optical path distance in cm. One activity unit (U) corresponds to the amount of enzyme required to catalyze the oxidation of 1 μmol NADPH per minute under the above conditions.
A column used for purification was a nickel affinity column HisTrap FF crude, and purification was achieved through affinity chromatography using a histidine tag on recombinant protein. The nickel column was equilibrated with a solution A first, a crude enzyme solution was loaded, a penetrating peak was further eluted off using the solution A, and after equilibrium, a solution B (20 mM sodium phosphate, 500 mM NaCl, and 1000 mM imidazole, pH 7.4) was used for gradient elution to elute off the recombinant protein bound to the nickel column, so as to obtain the recombinant alcohol dehydrogenase mutant. The purified protein was subjected to activity measurement (CPMK as substrate, and NADPH as coenzyme) and SDS-PAGE analysis. […] The purified alcohol dehydrogenase protein was then replaced into a Tris-HCl (100 mM, pH 7.0) buffer using a Hi Trap Desalting column (GE Healthcare).
The activity of KpADH at different substrate concentrations and coenzyme concentrations was determined, and a double reciprocal curve was made based on the reciprocal of activity and substrate concentration to calculate kinetic parameters.

[2] = Stereoselectivity on different substrates; conditions: configuration in brackets
Description: (§4) In an embodiment of the present disclosure, a chromatographic analysis method is as follows: 100 μL of reactant liquid is taken, 500 μL of ethyl acetate is added, shaking is performed for 1-2 min, centrifugation is performed at 12,000 rpm for 2-5 min, supernatant liquid is taken into a centrifuge tube, after an organic phase naturally volatilizes completely, 500 μL of chromatographically pure ethanol is added, and chiral liquid chromatography and gas chromatography are performed to analyze the transformation rate and the ee value.
(§5) Method for determining optical purity ee:
(§6) As: molar concentration of (S)-CPMA obtained by liquid chromatography; and AR: molar concentration of (R)-CPMA obtained by liquid chromatography.
(§7) The reduction on prochiral carbonyl compounds by the alcohol dehydrogenase mutants obtained in Example 3 was studied. The pro-chiral carbonyl compounds include (4-chlorophenyl)-(pyridin-2-yl)-methanone (CPMK), phenyl-(pyridin-2-yl)-methanone, (4-chlorophenyl)-(phenyl)-methanone, (4-bromophenyl)(phenyl)methanone, (4-fluorophenyl)(phenyl)methanone, (4-methoxyphenyl)-(phenyl)-methanone, (4-nitrophenyl)(phenyl)methanone, 1-(pyridin-2-yl)ethanone, acetophenone, 4′-Chloroacetophenone, 4-chlorophenacyl chloride, ethyl 2-oxo-4-phenylbutanoate (OPBE), ethyl 4-chloro-3-oxobutanoate, and methyl 2-oxo-2-phenylacetate.
All the products above were recrystallized from ethyl acetate and gave more than 99.9% optical purity.

[3] = Substrate specificity, specific activity
Description: as §1, §2, §3, §7

[4] = Stereoselectivity on different substrates; conditions: configuration in brackets; remark: listed apart in the source
Description: as §4, §5, §6, §7

[5] = Stereoselectivity (ee) of CPMK reduction, chiral liquid chromatography
Description: as §4, §5, §6

[6] = Asymmetric reduction in 20 mL biocatalytic system, conversion
Description: as §4
The pure (R)-CPMA were recrystallized from ethyl acetate at 4° C. and gave 99.9% optical purity. […] Besides, the conversion cannot reach 100% with 24 h in the asymmetric reduction of (4-bromophenyl)-(phenyl)-methanone and p-nitrobenzophenone due to the low enzyme activity.

[7] = substrate [drawing 10], acetophenone
[8] = substrate [drawing 11], 4-chloroacetophenone
[9] = substrate [drawing 12], 4-chlorobenzoyl chloride
[10] = substrate [drawing 16], (4-bromophenyl)-(phenyl)-methanone
[11] = substrate [drawing 17], p-nitrobenzophenone
[12] = substrate [drawing 6], 4-chlorophenacyl chloride
[13] = substrate [drawing 9], ethyl 4-chloro-3-oxobutanoate
[14] = substrate [drawing 14], likely CPMK (values partly match Table 4)
[15] = product configuration in brackets

B1: E214R/S237C: arginine for glutamate at position 214 and cysteine for serine at position 237 of SEQ ID No. 2 (protein)
chain: MSVLISGASGYIAKHIVRVLLEQNYKVIGTVRSQDKADKLLKQYNNPNLSYEIVPEIANLDAFDDIFKKHGKEIKYVIHAASPVNFGAKDLEKDLVIPAINGTKNMFEAIKKYAPDTVERVVMTASYASIMTPHRQNDPTLTLDEETWNPVTEENAYENVFTAYCASKTFAEKEAWKFVKENSDAVKFKLTTIHPSFVFGPQNFDEDVTKKLNRTCEIINGLLHAPFDTKVEKTHFCQFIDVRDVAKTHVLGFQKDELINQRLLLCNGAFSQQDIVNVFNEDFPELKGQFPPEDKDTDLNKGVTGCKIDNEKTKKLLAFEFTPFHKTIHDTVYQILHKEGRV
modifications: Protein translated from synthetic DNA
Kcat [1]: 10.4 ± 0.11 s⁻¹
Km [1]: 880 ± 20 µM
Vmax [1]: 15.6 ± 0.16 µM/min/mg
Stereoselectivity (ee) [2, 7]: 98.3 (R)
Stereoselectivity (ee) [2, 8]: 97.2 (R)
Stereoselectivity (ee) [2, 9]: 92.9 (R)
Stereoselectivity (ee) [2, 10]: 89.9 (R)
Stereoselectivity (ee) [2, 11]: 88.0 (R)
specific activity ([3]; substrate [drawing 1]): 0.26 U/mg
specific activity ([3]; substrate [drawing 2]): 0.18 U/mg
specific activity ([3]; substrate [drawing 3]): 0.36 U/mg
specific activity ([3]; substrate [drawing 4]): 4.21 U/mg
specific activity ([3]; substrate [drawing 5]): 1.96 U/mg
specific activity [3, 12]: 6.69 U/mg
specific activity ([3]; substrate [drawing 7]): 22.48 U/mg
specific activity ([3]; substrate [drawing 8]): 30.69 U/mg
specific activity [3, 13]: 1.88 U/mg
Stereoselectivity (ee) ([4]; substrate [drawing 13]): 50.1 (R)
Stereoselectivity (ee) [4, 14]: 48.3 (S)
Stereoselectivity (ee) ([4]; substrate [drawing 15]): 49.8 (R)
Stereoselectivity (ee) ([4]; substrate [drawing 18]): 91.9 (R)
configuration of product / stereoselectivity in words [5]: inversion from the R configuration to the S configuration; also recorded: (S)-CPMA
e.e. [5, 15]: 48.3 (S)

B2: WT: wild type alcohol dehydrogenase KpADH, amino acid sequence SEQ ID No. 2 (protein)
chain: B1 chain with R214E, C237S
modifications: Protein translated from synthetic DNA
ee in asymmetric synthesis of (R)-CPMA ([6]; 20 mL biocatalytic system, 30° C., pH 7.5): 82%
Conversion rate ([6]; CPMK 100 mM, 1 h): 50.5%
Conversion rate ([6]; CPMK 100 mM, 2 h): 65.5%
Conversion rate ([6]; CPMK 100 mM, 3 h): 79.5%
Conversion rate ([6]; CPMK 100 mM, 4 h): 88.8%
Conversion rate ([6]; CPMK 100 mM, 6 h): 98.5%
Conversion rate ([6]; CPMK 100 mM, 8 h): >99.9%
Conversion rate ([6]; CPMK 100 mM, 12 h): >99.9%
Conversion rate ([6]; CPMK 100 mM, 24 h): >99.9%
Conversion rate ([6]; CPMK 200 mM, 1 h): 35.6%
Conversion rate ([6]; CPMK 200 mM, 2 h): 46.9%
Conversion rate ([6]; CPMK 200 mM, 3 h): 62.0%
Conversion rate ([6]; CPMK 200 mM, 4 h): 75.5%
Conversion rate ([6]; CPMK 200 mM, 6 h): 95.6%
Conversion rate ([6]; CPMK 200 mM, 8 h): 98.8%
Conversion rate ([6]; CPMK 200 mM, 12 h): 99.4%
Conversion rate ([6]; CPMK 200 mM, 24 h): 99.7%
Conversion rate ([6]; CPMK 500 mM, 1 h): 22.5%
Conversion rate ([6]; CPMK 500 mM, 2 h): 30%
Conversion rate ([6]; CPMK 500 mM, 3 h): 55.6%
Conversion rate ([6]; CPMK 500 mM, 4 h): 66.5%
Conversion rate ([6]; CPMK 500 mM, 6 h): 80.2%
Conversion rate ([6]; CPMK 500 mM, 8 h): 93.2%
Conversion rate ([6]; CPMK 500 mM, 12 h): 95.6%
Conversion rate ([6]; CPMK 500 mM, 24 h): 99.2%
Stereoselectivity (ee) [2, 7]: 88.6 (R)
Stereoselectivity (ee) [2, 8]: 92.9 (R)
Stereoselectivity (ee) [2, 9]: 95.2 (R)
Stereoselectivity (ee) [2, 10]: 70.5 (S)
Stereoselectivity (ee) [2, 11]: 37.6 (R)
specific activity ([3]; substrate [drawing 1]): 0.99 U/mg
specific activity ([3]; substrate [drawing 2]): 1.34 U/mg
specific activity ([3]; substrate [drawing 3]): 4.15 U/mg
specific activity ([3]; substrate [drawing 4]): 4.07 U/mg
specific activity ([3]; substrate [drawing 5]): 12.09 U/mg
specific activity [3, 12]: 20.67 U/mg
specific activity ([3]; substrate [drawing 7]): 27.02 U/mg
specific activity ([3]; substrate [drawing 8]): 39.77 U/mg
specific activity [3, 13]: 41.84 U/mg
Stereoselectivity (ee) ([4]; substrate [drawing 13]): 27.5 (R)
Stereoselectivity (ee) [4, 14]: 83.7 (R)
Stereoselectivity (ee) ([4]; substrate [drawing 15]): 52.4 (S)
Stereoselectivity (ee) ([4]; substrate [drawing 18]): 27.3 (R)
ee value, (R)-CPMA ([5]; R configuration product): 82% and 81.7%
e.e. [5, 15]: 81.7 (R)
ee % [5, 15]: 81.7 (R) %
